Assay results taken from article PMC3029386, “Determinants Outside the DevR C-Terminal Domain Are Essential for Cooperativity and Robust Activation of Dormancy Genes in Mycobacterium tuberculosis”.

Experiments:
[1] = biological target: DevR (full-length) (Mycobacterium tuberculosis, UniProt P9WMF9 1-217); assay: EMSA; conditions: protein: recombinant; tags: N-terminal His6 (pAV-DevR); chain copies: 2
[2] = biological target: DevRC (DevR C-terminal domain) (Mycobacterium tuberculosis H37Rv, UniProt P9WMF9 141-217); assay: EMSA; conditions: protein: recombinant; tags: N-terminal His6 (pET28a, pUS-DevRC); chain copies: 2
Sequence of DevRC (DevR C-terminal domain) (P9WMF9 141-217): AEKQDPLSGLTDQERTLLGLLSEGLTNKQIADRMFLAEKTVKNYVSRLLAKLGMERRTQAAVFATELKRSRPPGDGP

Sequence of DevR (full-length) (P9WMF9 whole entry, the tested form may be a part): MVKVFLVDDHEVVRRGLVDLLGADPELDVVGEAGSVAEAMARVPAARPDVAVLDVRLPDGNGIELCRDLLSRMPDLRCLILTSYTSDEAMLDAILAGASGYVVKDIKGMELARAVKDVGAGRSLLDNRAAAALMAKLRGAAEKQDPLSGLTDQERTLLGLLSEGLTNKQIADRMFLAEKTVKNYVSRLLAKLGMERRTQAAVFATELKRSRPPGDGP

B1: P+S box (LH1/LH2), tgs1-Rv3131 promoter (dsDNA)
DNA 1: CGAGTCGACAGAGCACGAAGGCTCGCCAGCGGAGGACCTTTGGCCCTGCGTCGACCGA
DNA 2: TCGGTCGACGCAGGGCCAAAGGTCCTCCGCTGGCGAGCCTTCGTGCTCTGGTCGACTCG
B1: binds [1]; binds [2].
